Measurements as given in publication doi:10.1101/2024.06.16.599208, “A transcription-driven microgel network poised near the sol-gel transition”.

Molecular target: SAF-A SPRNK domain (SPRY/PNK) WT (UniProt Q00839 221-679)
Assay: EMSA; 8 mM HEPES pH 7.5, 60 mM KOAc, 16 mM MgOAc; 1 h on ice; 0.125 uM RNA, 0-8 uM protein; 7% acrylamide gel; n=3
Settings: protein: recombinant; (nickel IMAC); label: DY681

Chain of SAF-A SPRNK domain (SPRY/PNK) WT (Q00839 221-679): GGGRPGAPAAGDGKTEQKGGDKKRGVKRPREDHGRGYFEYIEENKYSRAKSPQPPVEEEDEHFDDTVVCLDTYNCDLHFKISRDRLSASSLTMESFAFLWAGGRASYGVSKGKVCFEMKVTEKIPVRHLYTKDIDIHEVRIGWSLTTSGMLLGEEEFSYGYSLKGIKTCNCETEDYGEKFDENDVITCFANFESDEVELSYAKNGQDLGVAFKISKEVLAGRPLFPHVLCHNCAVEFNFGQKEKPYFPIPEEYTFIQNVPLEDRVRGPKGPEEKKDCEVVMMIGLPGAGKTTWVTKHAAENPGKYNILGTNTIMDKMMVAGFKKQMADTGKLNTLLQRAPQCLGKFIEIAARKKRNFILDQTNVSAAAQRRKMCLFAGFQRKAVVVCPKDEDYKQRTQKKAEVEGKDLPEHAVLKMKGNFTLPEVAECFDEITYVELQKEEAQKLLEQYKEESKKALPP

B1: oligoA20-DY681 (ssRNA)
RNA: AAAAAAAAAAAAAAAAAAAA
  binding result: binds
